Assay results reported in the supplement of paper PMC7877785.
± gives the uncertainty stated by the source.

Assay: self-splicing fitness, log relative to wild type (ln ratio); higher = more splicing; Tetrahymena group I intron in knt gene, E. coli kanamycin selection, DiMSum; sequences stand for … in CUCUCU…GGAGGGAAAAGUUAUCAGGCAUGCACCUGGUAGCUAGUCUUUAAACCAAUAGAUUGCAUCGGUUUAAAAGGCAAGACCGUCAAAUUGCGGGAAAGGGGUCAACAGCCGUUCAGUACCAAGUCUCAGGGGAAACUUUGAGAUGGCCUUGCAAAGGGUAUGGUAAUAAGCUGACGGACAUGGUCCUAACCACGCAGCCAAGUCCUAAGUCAACAGAUCUUCUGUUGAUAUGGAUGCAGUUCACAGACUAAAUGUCGGUCGGGGAAGAUGUAUUCUUCUCAUAAGAUAUAGUCGGACCUCUCCUUAAUGGGAGCUAGCGGAUGAAGUGAUGCAACACUGGAGCCGCUGGGAACUAAUUUGUAUGCGAAAGUAUAUUGAUUAGUUUUGGAGUACUCGUGGUCG
How it was run: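 Fitness was computed with DiMSum as the error-weighted combination of replicate fold changes, kanamycin versus none, each normalised to wild type. The library randomised all eight intron nucleotides of the P1ex region, with the intron placed in the knt kanamycin-resistance gene on pET-22b(+) in E. coli BL21(DE3). Six replicate transformations were grown overnight at 37°C or 30°C on LB agar with or without 25 μg/mL kanamycin, plus 100 μg/mL carbenicillin, 50 μM IPTG and 0.2% rhamnose. Pooled colonies were amplicon-sequenced on an Illumina HiSeq 2500.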

| Sequence | self-splicing fitness (ln) (30 °C) | self-splicing fitness (ln) (37 °C) |
| --- | --- | --- |
| AUUGAGCAAUAUUACGCCCU | -2.51 ± 0.24 | -0.951 ± 0.21 |
| AUUGAGCAAUAUUACGCGCA | -1.48 ± 0.16 | -1.08 ± 0.2 |
| AUUGAGCAAUAUUACGCUAC | -3.69 ± 0.37 | – |
| AUUGAGCAAUAUUACGGAGU | -3.76 ± 0.15 | -1.86 ± 0.1 |
| AUUGAGCAAUAUUACGGCCG | -3.13 ± 0.26 | -0.636 ± 0.18 |
| AUUGAGCAAUAUUACGGCCU | -3.53 ± 0.21 | -0.674 ± 0.11 |
| AUUGAGCAAUAUUACGGCUA | -1.73 ± 0.37 | -0.81 ± 0.21 |
| AUUGAGCAAUAUUACGGGAG | -3.67 ± 0.26 | -2.33 ± 0.27 |
| AUUGAGCAAUAUUACGGUAG | -3.32 ± 0.24 | – |
| AUUGAGCAAUAUUACGUACG | -3.25 ± 0.29 | -1.53 ± 0.26 |
| AUUGAGCAAUAUUACGUACU | -2.1 ± 0.28 | -2.57 ± 0.49 |
| AUUGAGCAAUAUUACGUAGU | -2.08 ± 0.17 | -0.638 ± 0.14 |
| AUUGAGCAAUAUUACGUAUA | -2.67 ± 0.28 | -2.98 ± 0.32 |
| AUUGAGCAAUAUUACGUGAG | -2.08 ± 0.11 | -1.97 ± 0.14 |
| AUUGAGCAAUAUUACGUGCC | -2.73 ± 0.4 | – |
| AUUGAGCAAUAUUACGUGCG | -3.83 ± 0.24 | -2.02 ± 0.16 |
| AUUGAGCAAUAUUACGUGGC | -3.45 ± 0.16 | -3.69 ± 0.3 |
| AUUGAGCAAUAUUACGUUGA | -3.86 ± 0.37 | -3.45 ± 0.3 |
| AUUUAGCAAUAUUACGACGG | -1.79 ± 0.18 | -0.641 ± 0.16 |
| AUUUAGCAAUAUUACGACUC | -0.866 ± 0.14 | 0.207 ± 0.16 |

| Sequence | self-splicing fitness (ln) (30 °C) | self-splicing fitness (ln) (37 °C) |
| --- | --- | --- |
| AUUUAGCAAUAUUACGACUG | -2 ± 0.17 | -1.41 ± 0.16 |
| AUUUAGCAAUAUUACGAGAC | -2.44 ± 0.39 | – |
| AUUUAGCAAUAUUACGAGUU | -2.58 ± 0.3 | -0.85 ± 0.23 |
| AUUUAGCAAUAUUACGAUGA | -1.8 ± 0.14 | -0.68 ± 0.15 |
| AUUUAGCAAUAUUACGCCCC | -0.747 ± 0.37 | – |
| AUUUAGCAAUAUUACGCCGU | -1.2 ± 0.2 | -1.44 ± 0.22 |
| AUUUAGCAAUAUUACGCUGA | -1.32 ± 0.19 | -2.44 ± 0.3 |
| AUUUAGCAAUAUUACGCUUA | -1.99 ± 0.17 | -0.321 ± 0.19 |
| AUUUAGCAAUAUUACGCUUG | -0.566 ± 0.088 | -0.134 ± 0.12 |
| AUUUAGCAAUAUUACGGAAC | -3.03 ± 0.3 | -2.02 ± 0.31 |
| AUUUAGCAAUAUUACGGCGA | -0.579 ± 0.12 | 0.144 ± 0.11 |
| AUUUAGCAAUAUUACGGCUA | -0.795 ± 0.13 | 0.255 ± 0.12 |
| AUUUAGCAAUAUUACGUACA | -1.7 ± 0.15 | -1.39 ± 0.13 |
| AUUUAGCAAUAUUACGUAGG | -2.98 ± 0.14 | -2.02 ± 0.16 |
| AUUUAGCAAUAUUACGUAGU | -1.54 ± 0.079 | -0.851 ± 0.1 |
| AUUUAGCAAUAUUACGUAUA | -2.53 ± 0.34 | -1.48 ± 0.21 |
| AUUUAGCAAUAUUACGUCGG | -3.82 ± 0.4 | -3.18 ± 0.32 |
| AUUUAGCAAUAUUACGUGAG | -1.6 ± 0.083 | -0.846 ± 0.13 |
| AUUUAGCAAUAUUACGUUGU | -3.01 ± 0.19 | -2.82 ± 0.27 |
